Test results taken from patent US10864252B2, “Anti-SSX-2 T cell receptors and related materials and methods of use” (The United States of America, as represented by the …, priority 2010, dated 2020).

What was measured:
COS-A2 = experiment: IFN-γ release, TCR-transduced PBL co-cultured with COS-A2; format: cell-based; settings: for IFN-γ: human donor PBL co-cultured with COS-A2; for interferon-γ levels: co-cultured with Cos-A2
Text: (§1) SSX-2 TCR-transduced PBLs were co-cultured with various tumor cell lines. […] FIGS. 4A and 4B, FIG. 11, and Tables 3 and 4 show additional results of PBLs from human donors that were transduced with the SSX-2 TCR of Example 2 when these PBLs were co-cultured with various tumor cells. PBLs that were untransduced (UT) or transduced with a vector comprising SEQ ID NO: 27 (SSX-2 TCR), SEQ ID NO: 29 (codon-optimized SSX-2 TCR), or SEQ ID NO: 30 (codon-optimized SSX-2 TCR including mouse constant region) were co-cultured with various tumor cell lines. Tables 5 and 6 show the resulting interferon-γ levels (pg/ml) measured with respect to PBL from two different donors.

[1] = tested on: SSX2+/HLA-A2+ target cells; experiment: Proliferation ([3H]-thymidine) on co-culture with tumor cells; format: cell-based; settings: 1300 mel, 624 mel, 888 mel, SK mel 37 or COS-A2-SSX-2 cells; FIGS. 9A-9E
Text: In another experiment, PBLs transduced as described in this example were co-cultured with 1300 mel cells, 624 mel cells, 888 mel cells, SK mel 37 cells, or COS-A2-SSX-2 cells.

COS-A2-SSX-2 cells = experiment: Proliferation ([3H]-thymidine) on co-culture with COS-A2-SSX-2 cells; format: cell-based; settings: PBL from Donor 1 or Donor 2; FIGS. 6A, 6B
Method: PBLs from Donor 1 or Donor 2 that were untransduced (UT) or transduced with a vector comprising SEQ ID NO: 27 (SSX-2 TCR), SEQ ID NO: 29 (codon-optimized SSX-2 TCR), or SEQ ID NO: 30 (codon-optimized SSX-2 TCR including mouse constant region) were co-cultured with COS-A2-SSX-2 cells. Proliferation in terms of [^3H]-thymidine incorporation (CPM) was measured and is shown in FIG. 6A (Donor 1) and 6B (Donor 2).

293-A2 SSX2 = experiment: IFN-γ release, co-culture with 293-A2 SSX2; format: cell-based; settings: co-cultured with 293-A2 SSX2
Text: as §1

[2] = molecular target: T1, SSX-2: 41-49 (KASEKIFYV) peptide (Homo sapiens, UniProt Q16385); experiment: IFN-γ release, co-culture with T2 cells pulsed with SSX-2: 41-49 peptide; format: cell-based
T1 construct: host or cells: T2 cells (peptide-pulsed)
Text: SSX-2 TCR-transduced PBLs were co-cultured with T2 cells from two human donors, where the T2 cells were pulsed with varying concentrations of the SSX-2: 41-49 (KASEKIFYV) peptide. FIGS. 1A and 1B show the resulting interferon-γ levels (pg/ml) measured. […] The differences between FIGS. 1A and 1B may be due to donor variability.
PBLs that were untransduced (UT) or transduced with a vector comprising SEQ ID NO: 27 (SSX-2 TCR), SEQ ID NO: 29 (codon-optimized SSX-2 TCR), or SEQ ID NO: 30 (codon-optimized SSX-2 TCR including mouse constant region) were co-cultured with T2 cells that were pulsed with an SSX-2 were pulsed with varying concentrations of the SSX-2: 41-49 (KASEKIFYV) (SEQ ID NO: 1) peptide.

[3] = IFN-γ release, transduced PBL without target cells (medium / T cell alone); format: cell-based, human; settings: for IFN-γ: MEDIUM, no target cells; for interferon-γ levels: T cell alone
Text: as §1

B1: SSX2-TCR-WT: HLA-A2 restricted anti-SSX-2 TCR alpha and beta chains encoded by SEQ ID NO: 27, tested as transduced human PBLs (protein)
chain: MSLSSLLKVVTASLWLGPGIAQKITQTQPGMFVQEKEAVTLDCTYDTSDPSYGLFWYKQPSSGEMIFLIYQGSYDQQNATEGRYSLNFQKARKSANLVISASQLGDSAMYFCAMTSGFGNEKLTFGTGTRLTIIPNIQNPDPAVYQLRDSKSSDKSVCLFTDFDSQTNVSQSKDSDVYITDKTVLDMRSMDFKSNSAVAWSNKSDFACANAFNNSIIPEDTFFPSPESSCDVKLVEKSFETDTNLNFQNLSVIGFRILLLKVAGFNLLMTLRLWSSRAKRSGSGATNFSLLKQAGDVEENPGPMGPGLLHWMALCLLGTGHGDAMVIQNPRYQVTQFGKPVTLSCSQTLNHNVMYWYQQKSSQAPKLLFHYYDKDFNNEADTPDNFQSRRPNTSFCFLDIRSPGLGDAAMYLCATSRGQGGQPQHFGDGTRLSILEDLNKVFPPEVAVFEPSEAEISHTQKATLVCLATGFFPDHVELSWWVNGKEVHSGVSTDPQPLKEQPALNDSRYCLSSRLRVSATFWQNPRNHFRCQVQFYGLSENDEWTQDRAKPVTQIVSAEAWGRADCGFTSVSYQQGVLSATILYEILLGKATLYAVLVSALVLMAMVKRKDF
- IFN-γ (COS-A2; Table 3): 297 pg/mL
- IFN-γ (COS-A2; Table 4): 180 pg/mL
- interferon-γ levels (COS-A2; Table 5 donor): 2839 pg/mL
- interferon-γ levels (COS-A2; Table 6 donor): 460 pg/mL
- proliferation ([3H]-thymidine incorporation) [1]: proliferate in response to co-culture with SSX2+/HLA-A2+ target cells
- proliferation ([3H]-thymidine incorporation) (COS-A2-SSX-2 cells): proliferate in response to co-culture with COS-A2-SSX-2 cells
- IFN-γ (293-A2 SSX2; Table 3): 33913 pg/mL
- IFN-γ (293-A2 SSX2; Table 4): 20595 pg/mL
- recognition of SSX-2: 41-49 peptide (IFN-γ) ([2]; FIG. 10): recognize SSX-2: 41-49 peptide
- lowest SSX-2: 41-49 peptide concentration recognized (IFN-γ) ([2]; T2 cells from two human donors pulsed with varying peptide concentrations, FIGS. 1A, 1B): ≤ 0.01 ng/mL
- IFN-γ ([3]; Table 3): 0 pg/mL
- IFN-γ ([3]; Table 4): 0 pg/mL
- interferon-γ levels ([3]; Table 5 donor): 165 pg/mL
- interferon-γ levels ([3]; Table 6 donor): 322 pg/mL
